# B1: Nanog(-527/-503) mut (dsDNA)
# DNA 1: GGTGGGCCACCAAGCCCATACTTTT
# DNA 2: AAAAGTATGGGCTTGGTGGCCCACC
# B2: Nanog(-568/-544) mut (dsDNA)
# DNA 1: GATCCGCCTATTACGTCATCCCAAT
# DNA 2: ATTGGGATGACGTAATAGGCGGATC
# B3: Nanog(-527/-503) WT (dsDNA)
# DNA 1: GGTGGGCCACCGCGCCCGGCCTTTT
# DNA 2: AAAAGGCCGGGCGCGGTGGCCCACC
# B4: Nanog(-568/-544) WT (dsDNA)
# DNA 1: GATCCGCCTGCCACGGCCTCCCAAT
# DNA 2: ATTGGGAGGCCGTGGCAGGCGGATC
# Target: GST-AP-2α (UniProt P05549 1-437)
# Assay: EMSA; EMSA/Gel-Shift Kit (Beyotime) binding buffer, 10 μL, 5 μg GST-AP-2α, 2 pmol biotin probe, 30 min room temperature, 4% nondenaturing gel; salt and pH not stated
# Conditions: protein: recombinant, tags: GST, blunt
# GST-AP-2α, sequence (P05549 whole entry): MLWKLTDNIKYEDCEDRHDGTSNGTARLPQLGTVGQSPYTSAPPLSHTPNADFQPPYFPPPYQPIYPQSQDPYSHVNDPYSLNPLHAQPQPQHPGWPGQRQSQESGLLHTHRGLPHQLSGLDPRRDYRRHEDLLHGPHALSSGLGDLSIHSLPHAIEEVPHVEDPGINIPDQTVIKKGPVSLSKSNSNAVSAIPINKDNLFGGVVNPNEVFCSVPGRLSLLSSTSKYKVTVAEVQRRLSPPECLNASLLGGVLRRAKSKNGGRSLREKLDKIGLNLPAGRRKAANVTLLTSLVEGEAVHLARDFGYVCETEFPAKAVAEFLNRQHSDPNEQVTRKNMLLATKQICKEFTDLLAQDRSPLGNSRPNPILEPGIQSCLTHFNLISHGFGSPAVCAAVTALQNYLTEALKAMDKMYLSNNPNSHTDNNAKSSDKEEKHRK
Binder,binding result (label: 3' biotin),binding result (label: 3' biotin (hot probe))
B1,no binding,–
B2,no binding,–
B3,–,binds
B4,–,binds
